Data reported in the supplement of paper PMC5998384.

Tests used:
HeLa Kyoto [1] = test: solubility in G1/S (NP-40 vs SDS abundance) (log2 ratio); higher = more soluble; details: cell cycle stage: G1/S
HeLa Kyoto [2] = test: melting temperature (median over replicates), in situ; higher = more thermally stable
HeLa Kyoto [3] = test: solubility change mitosis vs G1/S (difference of NP-40 vs SDS log2 ratios) (log2 ratio difference); higher = more soluble in mitosis
HeLa Kyoto [4] = test: thermal stability score vs G1/S (z-score of summed log2 fold changes over temperatures); higher = more thermally stable than in G1/S
[5] = cell cycle stage: early G1 (4.5 h after nocodazole release)
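Throughout, for melting temperature (median over replicates), in situ: HeLa Kyoto cells synchronized by double thymidine or nocodazole block, proteins quantified by TMT10plex mass spectrometry, three independent biological replicates.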
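Throughout, for solubility change mitosis vs G1/S (difference of NP-40 vs SDS log2 ratios): synchronized HeLa Kyoto cells (double thymidine block for G1/S, nocodazole release for mitosis), protein amounts in NP-40 versus SDS lysates quantified by mass spectrometry, three biological replicates.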
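Throughout, for solubility in G1/S (NP-40 vs SDS abundance): HeLa Kyoto cells arrested at G1/S by double thymidine block, proteins quantified by TMT10plex mass spectrometry in mild NP-40 versus SDS extracts, three biological replicates.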
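Throughout, for thermal stability score vs G1/S (z-score of summed log2 fold changes over temperatures): synchronized HeLa Kyoto cells, proteins quantified by TMT10plex mass spectrometry, three biological replicates, mitosis taken 0.5 h after nocodazole release, G1/S directly after double thymidine block.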

With “MRVAALISGGKDSCYNMMQCIAAGHQIVALANLRPAENQVGSDELDSYMYQTVGHHAIDLYAEAMALPLYRRTIRGRSLDTRQVYTKCEGDEVEDLYELLKLVKEKEEVEGISVGAILSDYQRIRVENVCKRLNLQPLAYLWQRNQEDLLREMISSNIQAMIIKVAALGLDPDKHLGKTLDQMEPYLIELSKKYGVHVCGEGGEYETFTLDCPLFKKKIIVDSSEVVIHSADAFAPVAYLRFLELHLEDKVSSVPDNYRTSNYIYNF [DPH6]” as the substance, how does the “solubility in G1/S (log2)” value (HeLa Kyoto [1]) read?
Its value is 0.152.

And the melting temperature (HeLa Kyoto [2]; cell cycle stage: G1/S)?
The melting temperature was 50.2 °C.

And the melting temperature (HeLa Kyoto [2]; cell cycle stage: mitosis)?
Its melting temperature is 50.6 °C.

And the “solubility change mitosis (log2)” value (HeLa Kyoto [3])?
The value was -0.0821.

And the thermal stability score (HeLa Kyoto [4]; [5])?
Its thermal stability score is -0.982.

And the thermal stability score (HeLa Kyoto [4]; cell cycle stage: mitosis)?
Its thermal stability score is 0.029.

What does the source list for DOCK7?
solubility in G1/S (log2) (HeLa Kyoto [1]): -0.219; melting temperature (HeLa Kyoto [2]; cell cycle stage: G1/S): 48.2 °C; melting temperature (HeLa Kyoto [2]; cell cycle stage: mitosis): 49 °C; solubility change mitosis (log2) (HeLa Kyoto [3]): -0.188; thermal stability score (HeLa Kyoto [4]; [5]): 0.562; thermal stability score (HeLa Kyoto [4]; cell cycle stage: mitosis): 1.42

“MSYGPLDMYRNPGPSGPQLRDFSSIIQTCSGNIQRISQATAQIKNLMSQLGTKQDSSKLQENLQQLQHSTNQLAKETNELLKELGSLPLPLSTSEQRQQRLQKERLMNDFSAALNNFQAVQRRVSEKEKESIARARAGSRLSAEERQREEQLVSFDSHEEWNQMQSQEDEVAITEQDLELIKERETAIRQLEADILDVNQIFKDLAMMIHDQGDLIDSIEANVESSEVHVERATEQLQRAAYYQKKSRKKMCILVLVLSVIILILGLIIWLVYKTK [STX12]” was tested. Which “solubility in G1/S (log2)” value (HeLa Kyoto [1]) did it give?
Its value is -0.121.

What about the melting temperature (HeLa Kyoto [2]; cell cycle stage: G1/S) of the same substance?
Its melting temperature is 53.9 °C.

What about the melting temperature (HeLa Kyoto [2]; cell cycle stage: mitosis) of the same substance?
The melting temperature was 54.3 °C.

What about the “solubility change mitosis (log2)” value (HeLa Kyoto [3]) of the same substance?
Its value is 0.0226.

What about the thermal stability score (HeLa Kyoto [4]; [5]) of the same substance?
The thermal stability score was -1.25.

What about the thermal stability score (HeLa Kyoto [4]; cell cycle stage: mitosis) of the same substance?
The thermal stability score was -1.93.

Which “solubility in G1/S (log2)” value (HeLa Kyoto [1]) does the source give for “MDMKRRIHLELRNRTPAAVRELVLDNCKSNDGKIEGLTAEFVNLEFLSLINVGLISVSNLPKLPKLKKLELSENRIFGGLDMLAEKLPNLTHLNLSGNKLKDISTLEPLKKLECLKSLDLFNCEVTNLNDYRESVFKLLPQLTYLDGYDREDQEAPDSDAEVDGVDEEEEDEEGEDEEDEDDEDGEEEEFDEEDDEDEDVEGDEDDDEVSEEEEEFGLDEEDEDEDEDEEEEEGGKGEKRKRETDDEGEDD [ANP32B]” here?
The value was -0.0836.

And the melting temperature (HeLa Kyoto [2]; cell cycle stage: G1/S)?
Its melting temperature is 48.5 °C.

What about the melting temperature (HeLa Kyoto [2]; cell cycle stage: mitosis) of the same substance?
The melting temperature was 53.3 °C.

What about the “solubility change mitosis (log2)” value (HeLa Kyoto [3]) of the same substance?
The value was 0.205.

What about the thermal stability score (HeLa Kyoto [4]; [5]) of the same substance?
Its thermal stability score is 2.33.

And the thermal stability score (HeLa Kyoto [4]; cell cycle stage: mitosis)?
The thermal stability score was 3.78.

For “MSKPELKEDKMLEVHFVGDDDVLNHILDREGGAKLKKERAQLLVNPKKIIKKPEYDLEEDDQEVLKDQNYVEIMGRDVQESLKNGSATGGGNKVYSFQNRKHSEKMAKLASELAKTPQKSVSFSLKNDPEITINVPQSSKGHSASDKVQPKNNDKSEFLSTAPRSLRKRLIVPRSHSDSESEYSASNSEDDEGVAQEHEEDTNAVIFSQKIQAQNRVVSAPVGKETPSKRMKRDKTSDLVEEYFEAHSSSKVLTSDRTLQKLKRAKLDQQTLRNLLSKVSPSFSAELKQLNQQYEKLFHKWMLQLHLGFNIVLYGLGSKRDLLERFRTTMLQDSIHVVINGFFPGISVKSVLNSITEEVLDHMGTFRSILDQLDWIVNKFKEDSSLELFLLIHNLDSQMLRGEKSQQIIGQLSSLHNIYLIASIDHLNAPLMWDHAKQSLFNWLWYETTTYSPYTEETSYENSLLVKQSGSLPLSSLTHVLRSLTPNARGIFRLLIKYQLDNQDNPSYIGLSFQDFYQQCREAFLVNSDLTLRAQLTEFRDHKLIRTKKGTDGVEYLLIPVDNGTLTDFLEKEEEEA [ORC2]”, which “solubility in G1/S (log2)” value (HeLa Kyoto [1]) is on record?
Its value is 0.117.

And the melting temperature (HeLa Kyoto [2]; cell cycle stage: G1/S)?
Its melting temperature is 48.1 °C.

What about the melting temperature (HeLa Kyoto [2]; cell cycle stage: mitosis) of the same substance?
The melting temperature was 49.2 °C.

What about the “solubility change mitosis (log2)” value (HeLa Kyoto [3]) of the same substance?
The value was 0.06.

And the thermal stability score (HeLa Kyoto [4]; [5])?
Its thermal stability score is 1.23.

And the thermal stability score (HeLa Kyoto [4]; cell cycle stage: mitosis)?
Its thermal stability score is 1.67.

Which “solubility in G1/S (log2)” value (HeLa Kyoto [1]) does the source give for “MAALMTPGTGAPPAPGDFSGEGSQGLPDPSPEPKQLPELIRMKRDGGRLSEADIRGFVAAVVNGSAQGAQIGAMLMAIRLRGMDLEETSVLTQALAQSGQQLEWPEAWRQQLVDKHSTGGVGDKVSLVLAPALAACGCKVPMISGRGLGHTGGTLDKLESIPGFNVIQSPEQMQVLLDQAGCCIVGQSEQLVPADGILYAARDVTATVDSLPLITASILSKKLVEGLSALVVDVKFGGAAVFPNQEQARELAKTLVGVGASLGLRVAAALTAMDKPLGRCVGHALEVEEALLCMDGAGPPDLRDLVTTLGGALLWLSGHAGTQAQGAARVAAALDDGSALGRFERMLAAQGVDPGLARALCSGSPAERRQLLPRAREQEELLAPADGTVELVRALPLALVLHELGAGRSRAGEPLRLGVGAELLVDVGQRLRRGTPWLRVHRDGPALSGPQSRALQEALVLSDRAPFAAPSPFAELVLPPQQ [TYMP]” here?
The value was 0.479.

And the melting temperature (HeLa Kyoto [2]; cell cycle stage: G1/S)?
Its melting temperature is 55.7 °C.

What about the melting temperature (HeLa Kyoto [2]; cell cycle stage: mitosis) of the same substance?
The melting temperature was 57.5 °C.

What about the “solubility change mitosis (log2)” value (HeLa Kyoto [3]) of the same substance?
Its value is -0.0175.

What about the thermal stability score (HeLa Kyoto [4]; [5]) of the same substance?
Its thermal stability score is -1.38.

What about the thermal stability score (HeLa Kyoto [4]; cell cycle stage: mitosis) of the same substance?
The thermal stability score was -0.967.
